Results on three molecules are retold here after patent US20190276551A1 (UNIVERSITY MEDICAL CENTER HAMBURG EPPENDORF, published 2019).

This assay deals with T1, human CD38 on cells (human, UniProt P28907 1-300).
T1 construct: also called native CD38; CD38 on LP-1 myeloma cells, CD38-transfected NIH-3T3 cells, blood leukocytes, CD38-transfected DC27.10 cells
Kind of assay: flow cytometry on human blood, bound VHH detected with FITC anti-c-myc 9E10, MFI of CD3-negative lymphocytes.

Procedure: 50 μl samples of human blood were incubated with serially titrated, purified monovalent Nanobodies for 30 min at RT. Cells were washed twice and bound Nbs were detected with FITC-conjugated anti-c-myc (9E10). T cells were stained with APC-conjugated anti-CD3. Erythrocytes were lysed and cells were analyzed by flow cytometry. Gating was performed on lymphocytes and CD3-negative cells.
Next, purified monovalent anti-CD38 VHH were analysed for binding to native CD38 on the cell surface of peripheral blood leukocytes (PBMCs) by flow cytometry. […] After washing the cells and lysis of erythrocytes by lysis buffer, binding was examined by flow cytometry. […] As positive control, a FITC-labelled monoclonal antibody against CD38 (anti-human CD38-FITC, IA10, BD Biosciences) was used. The lymphocytes were defined on forward and side scattered light. Using the Flowio software the mean fluorescence intensity (MFI) of the CD3-negative cell population was calculated.

B1: MU1053 (VHH)
VHH: DVQLQESGGGLVQAGGSLRLSCTGSGRTFRNYPMAWFRQAPGKEREFVAGITWVGASTLYADFAKGRFTISRDNAKNTVYLQMNSLKPEDTAVYSCAAGRGIVAGRIPAEYADWGQGTQVTVSS
notes: also called L-15.3; I-15.3a
A word on the EC50 (read off the curve): it is the midpoint of the concentration-response curve. Higher therefore signals a less potent agent. As to B1, the “EC50 (read off the curve)” value is roughly 0.1 nM.

B2: MU725 (VHH)
VHH: DVQLQESGGGLVQAGGSLRLSCAASGFTFDDYVIGWFRQAPGKEREGVSSISNNNSTYYADSVKGRFTIASDNAKNTVYLQMNSLKPEDTAVYYCAADVTLNPFTGWNTRSGPMYRYEYDYWGQGTQVTVSS
notes: His6-Myc-tagged monovalent VHH; also called family 22
As to B2, the binding result is listed as “binds”.

B3: MU737 (VHH)
VHH: DVQLQASGGGLVQAGGSLRLSCAGSGRSFSSYAMGWFRQAPGKAREIVATITRSGGSTNYAVPVKGRFTISRDNAKNTVYLQMSSLKPEDTAVYYCAADRFAVASGTHDLDYWGQGTQVTVSS
notes: His6-Myc-tagged monovalent VHH; also called s-14.1c; family 9
Take B3: the binding result is on record as “binds”.
